# From the supplement of paper PMC7125110
# ± gives the standard error. This sample holds only a part of the variants without activity.
# B1: glmS ribozyme (parent)
# chain: AUAAAAGCGCCAGAACUACAGAAAUGUAGUUGACGAGGAGGAGGUUUAUCGAAUUUUCGGCGGAUGCCUCCAAA
# Variants of: B1
# Assay: self-cleavage kobs at 10000 uM GlcN6P; higher = faster cleavage; RNA array
# Conditions: with glucosamine-6-phosphate
# Summary of the method: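 Ribozyme variants carrying barcodes were transcribed in situ on sequenced MiSeq chips by E. coli RNA polymerase and tracked at 37 °C with a hybridised Cy3 probe. They were exposed to 40 μM to 10 mM glucosamine-6-phosphate in HEPES/KCl/Mg(OAc)2 buffer. kobs came from exponential decay fits of normalised per-tile medians, and kcat and KM from weighted Michaelis–Menten fits.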
row,Variant,self-cleavage kobs at 10000 uM GlcN6P [s⁻¹]
1,AUAAAAGCGCCAGAACUACAGAAAUGUAGUUGACGAGGUGGAGGUUUAUCGAAUCUUCGGCGGACGCCUCCAAA,0.00435 ± 0.00052
2,AUAAAAGCGCCAGAACUACAGAAAUGUAGUUGACGAGGAGGAGGUUUUUCGAAUUUUCGGCCGAUGGCUCCAAA,< 1e-05
3,AUAAAAGCGCCAGAACUACAGAAAUGUAGUUGAGUAGAAGGAGGUUUAUAGAAUUUUCGGCGGAUGCCGCCAAA,0.000375 ± 5.4e-05
4,AUAAAAGUGCCAUAUCUACAGAAAUGUAGUUGACGAGGAGGAGGUUUAUUGAAUUUUCGGCGGAUGCCUCCAAA,< 1e-05
5,AUAAAAGCGCCAGAACUACAGAAAUGUAGUUGACGCGGAGGAGGUUUAUCGUAUUUUUGGCGAAUGCCUCCAAA,< 1e-05
6,AUAAAAGCGCCAGAACUACAGAAAUGUAGUCGACGAGGAGGAGGUUUAUGGAAUUUUCGGCGAAUGCCUCCAAA,3.51e-05 ± 1.5e-05
7,AUAAAAGCGCGAGAACUACAGAAAUGUAGUUGGCGAGGAUGAGGUUUAUCGAAUUUUCGGCGGAUGCCUUCAAA,< 1e-05
8,AUAAAAGCGCCAGAACUACAGAAAUGUAGGUGACGAUGAGGAGGUUUAUCGUAUUUUCAGCGGAUGCCUCCAAA,< 1e-05
9,AUAAAAGCGUCAGAACUACAGAAAUGUAGAUGACGAGGAGGAGGUUUAUCGAAUUUUCGGCGGAUGCUUCCAAA,< 1e-05
10,AUAAAAGAGCCAGAACUACAGAAAUGUAGUUGACUAGGAGGAGUUUUAUCGGAUUUUCGGCGGAUGCCUCCAAA,< 1e-05
11,AUAAAAGCGCCAGAACUACAGAAAUGUAGUUCACAAGGAGGAGGUUUAUCGAAUUUUCGACGGAUGCCUCCAAA,< 1e-05
12,AUAAAUGCGCCAGAACUACAGAAAUGUAGUUGGUGAGGAGGAGUUUUACCGAAUUUGCGGCGGAUGCCUCCAAA,< 1e-05
13,AUAAAAGCGCCAGAACUACAGAAAUGUAGUUGACGAGGAGCAGGUUUAUCGAAUUUGCGGCGGAUGCCUCCAAA,< 1e-05
14,AUAAAAGCGCCAGAUCUACAGAAAUGUAGUUUACGAGGAGGAGGUUUAUCGAAAUUUCGGCGGAUGCCUCCAAA,0.00058 ± 0.00013
15,AUAAAAGCGCCAGAACUACAGAAAUGUAUUUGACGAGGAGGAGGUUUAUCGAAUAUUCGGCGGAUGCCACCAAA,4.12e-05 ± 1.6e-05
16,AUAAAAGGGCCAGAACUACAGAAAUGUAGUUGACGAGGAGGACGUUUAUUGAAUUUUCGGCGGAUGCCUCCAAA,< 1e-05
17,AUAAAAGCGCCAGAACUACAGAAAUGUAGUUGACGAGGAGGAGGUUUAUCGAAUGUUCCGCGGAUGCCUACAAA,0.000104 ± 2.7e-05
18,AUAAAAGCGCCAGAACUACAGAAAUGUAGUUGAAGCUGAGGAGGUUUAUCGAAUUUUCGGCGGAUGCCGCCAAA,0.000153 ± 3.2e-05
19,AUAAAAGCGCCAGAACUACAGAAAUGUAGUUGCCGAGUAGGAGGUUUAUCGAAUUUUCGGCGGAUGCUUCCAAA,< 1e-05
20,AUAAAAGCGCUAGAACUACAGAAAUGUAGUUGACGAGUAGGAGGAUUUUCGAAUUUUCGGCGGAUGCCUCGAAA,< 1e-05
21,AUAAAAGCGUCACAACUACAGAAAUGUAGUUGACGAGGAGGAGGUUUAUCGAAUUUUCGGCGUAUGCCUCCAAA,< 1e-05
22,AUAAAAGCGCUAGAACUACAGAAAUGUAGUUAACGAGGAGGGGGUUUAUCGAUUUUUCGGCGGAUGCCUCCAAA,9.31e-05 ± 2.5e-05
23,AUAAAAGCGCCAGGAAUACAGAAAUGUAGUUGACGAGGACGAGGUUUAUCGAAUUUUCGGCGUAUGCCUCCAAA,< 1e-05
24,AUAAAAGCGCGAGAACUACAGAAAUGUAGUUGACGAGGAGGAGGUUUAUCGAAUUUUCGUCGGAUGCCGCCAAA,< 1e-05
25,AUAAAAGCGCCGGAACUACAGAAAUGUAGUUGACGAGGAGGAGUUUUAUCGAAUUUUGGGCGGAUGCCUCCAAA,< 1e-05

row,Variant,self-cleavage kobs at 10000 uM GlcN6P [s⁻¹]
1,AUAAAAGCGCCAGAACUACAGAAAUGUAGUUGACGAGGAGGAGGUCUAUCGAAUUUUCGGCGGAUGCAUCCAAA,3.47e-05 ± 1e-05
2,AUAAAAGCGCCAGGACUACAGAAAUGUAGUUGACGAGGAGGAGGUUUAUCGAAAUUUCGGCGGAUGCCUGCAAA,0.000124 ± 2.6e-05
3,AUAAAAGCGCCGGAACUACAGAAAUGUAGGUGACGAGGAGGAGGUUUAUCGAUUUUUCGGCGGAUGCCUCCAAA,9.4e-05 ± 2e-05
4,AUAAAAGUGCCAGAACUACAGAAAUGUAGUUGACGAGGAGGAGGUUUUUCGAAUUUUCGGCGGAUGCCUCUAAA,< 1e-05
5,AUAAAAGCGCCAGAACUACAGAAAUGUAGUUGACGAGGACGAGGUUUAUCCAAUUUACGGCGGAUGCCUCCAAA,< 1e-05
6,AUAAAAGAGCCAGAACUACAGAAAUGUAGUUGACGAGGAGGAGAUGUAUCGAAUUUUCGGCGGAUGCCUGCAAA,< 1e-05
7,AUAAAAGCGCCAGAACUACAGAAAUGUAGUUGACGAGGAGGAGGUUUGUCGAAUUUUCGGCCGAUGCCUGCAAA,< 1e-05
8,AUAAAAGCGCCAAAAUUACAGAAAUGUAGUUUACGAGGAGGAGGUUUAUCGAAUUUUCGGCGGAUGCCUCCAAA,0.000302 ± 4.9e-05
9,AUAAAAGCGCCAGCACUACAGAAAUGUAGUUGACGAGGAGGAGGUUUAUCUAAUUUUCGGCGGAUGCCUCCAAA,< 1e-05
10,AUAAAAGCGCCAGAUCUACAUAAAUGUAGUUGACGAGGAGGAGGUUUAUCGAAUUUUCGGCGGAUGCCUCCAAA,0.00395 ± 0.00079
11,AUAAAAGCGCCAGAACUACAGAAAUGUAGUUGCCGAUGAGGAGGUUUAUCGAAUUUUCGGCGGAUGCCUGCAAA,< 1e-05
12,AUAAAAGCGCCAGAAUUACAGAAAUGUAGUUGACGAGGAGGAGGUUUAUGGAAUUUUCGGCGGAUGUCUCCAAA,0.000119 ± 2.9e-05
13,AUAAAAGCGCCAGCACUACAGAAAUGUAGUUGACGAGGAGGAGGUUUCUCGAAUUUUCUGCGGAUGCCUCCAAA,< 1e-05
14,AUAAAAGCGCCAGAACUACAGAAAUGUAGUUGACGAGGAGGAGGUUUAUCGAAUUUUCGCCGGGGGCCUCCAAA,< 1e-05
15,AUAAAAGCGCCAGAACUACAGAAAUGUAGAUGACGAGGAGGAGGUUUGUCGAAUUUUCGGCGGAUGCAUCCAAA,< 1e-05
16,AUAAAAGCGCCAAAACUACAGAAAUGUAGUUGACUACGAGGAGGUUUAUCGAAUUUUCGGCGGAUGCCUCCAAA,< 1e-05
17,AUAAAAGCGCCAGAACUACAGAAAUGUAGUUGACGAGGAGGAGGCUUAUCGAAUUUUCGGCGGAGGCCUUCAAA,0.000225 ± 6.1e-05
18,AUAAAAGCGCCAGAACUACAGAAAUGUAGUUGACGAGGAGGAAGUUUAUCGCAUUUUAGGCGGAUUGCGCCAAA,< 1e-05
19,AUAAAAGCGCCAGAAGUACAGAAAUGUAAUUGACGAGGAGGAGGUUUAUCGAAUUUUCGGCGGAUGACUCCAAA,0.000261 ± 8.9e-05
20,AUAAAAGCGCCAGAACUACAGAAAUGUAGUUGACGAGUAGAAGGGUUAUCGAAUUAUCUGCGGAUGCCUCCAAA,< 1e-05
21,AUAAAAGCGUCAGAACUACAGAAAUGUAGUUGACGACGAGGACGUUCAUCGAAUUUUCGGCGGAUGCCUCCAAA,< 1e-05
22,AUAAAAGCGCCUGAUAUACAGAAAUGUAGUUGACGAGGAGGAGGUUUAUCGAAUUUUCGGCGGAUGCCUCCAAA,0.00105 ± 0.00024
23,AUAAAAACGCCAGAACUACAGAAAUGUAAUUGACGAGAAGGAGUUUUGUCGAAUUUUCGGCGGAUUCCUCCAAA,< 1e-05
24,AUAAAAGCGGCAGCACUACAGAAAUGUAGUUGACGAGGAGGAGGUUUAUCGAAUUUUCGGCGUAUGCCUCCAAA,< 1e-05
25,AUAAAUGCGCCUGAAUUACAGAAAUGUAGUUGACGGGGAGGAGGUUUAUCGAAUUUUCGGCGGAUGCCUCCAAA,< 1e-05

row,Variant,self-cleavage kobs at 10000 uM GlcN6P [s⁻¹]
1,AUAAACGCGCCAGAACUACAGAAAUGUAGUUGACGAGGAGGAGGUUUAUAGAAUGUUCGGCGGAUGCCUCCAAA,< 1e-05
2,AUAAAAGCGCCUGAACUACAGAAAUGUAAUUGACGAGGAGGAGGUUUAUCGAAUUUUCGGCGGAUGCCUACAAA,9.81e-05 ± 2.5e-05
3,AUAAAAGCGCCAGAACUACAGAAAUGUAGUUGACGAGGAGAAGGUUUAUCGUAUUUUCGGCGGAUGCCUCCAAA,9.26e-05 ± 1.6e-05
4,AUAAAAGCGCCAGAACUACAGAAAUGUAGUUGACGUGGAGGAGGUUUAACGAAUUUUCGGCGGAUGCCUCCAAA,8.19e-05 ± 9.1e-06
5,AUAAAAGCGCCGGGACUACAGAAAUGUAGUUGACGAGGAGGAGGUUUAUCGAAUUUUCCGCGGAUGCCUCCAAA,0.000119 ± 3.7e-05
6,AUAAAAGCGCCAAAACUACAGAAAUGUAGUUGACGAGGAGGAGGUAUAUCGAAUUUUCGGCGGAUGCCUCCAAA,4.05e-05 ± 1.3e-05
7,AUAAAAGCGCCAGAACUACAGAAAUGUAGUUGACGACGAGGAGGUUUGUCGAAUUUUCGGCUGAUGCCUCCAAA,< 1e-05
8,AUAAAAGCGCCAGAACUACAGAAAUGUAGUUGACGAGGAGGAGGUUUAUCGAAUUGUCGGCGGUUGCCUUCAAA,4.79e-05 ± 1.2e-05
9,AUAAAAGCCCCAGAACUACAGAAAUGUAGUUGACGAGCAGGAUGUUUAUCGAAUUUUCGGCGGAUGCCUCCAAA,< 1e-05
10,AUAAAAGCGCCAGAACUACAGAAAUGUAGUUGACGAGGAGGAGGUUUAUCGAAUUUUUCGGCGGAUCCUCCAAA,< 1e-05
11,AUAAAAGCGCCAGAACUACAGAAAUGUAGUUGACGACGAGGAGGUUUAUCGAAUUUUCGGCGGGUGCCUUCAAA,4.49e-05 ± 1.6e-05
12,AUAAAAGCACCAGAACUACAGAAAUGUAGUUGACGAGGAGGAGGUUUAUCGAAUUUUCGUCGGAUGCCUGCAAA,< 1e-05
13,AUAAAAGCGCCAGAACUACAGAAAUGUAGUUGACGAGGAGGAGCUUUAUUGAAUUAUCGGCGGAUGCCUCCAAA,< 1e-05
14,AUAAAUGCGCCUGAACUACAGAAAUGUAGUUGACGAGGAGGAGGUUUAUCGAAUUUUCGGCGGGUGCCUCCAAA,0.000171 ± 4.1e-05
15,AUAAAAGCGCUAGAACUACAGAAAUGUAGUUGACGAGGUGGAGGUUUAUCGAAGUUUCGGCGGAUGCCUCCAAA,0.000492 ± 0.00011
16,AUAAAAGCGCCAGAACUACAGAAAUGUAUUUGACGAGGAGGAGGUAUAUCGAACUUUCGGCGGAUGCCUCCAAA,7.78e-05 ± 2e-05
17,AUAAAAGCGCCAGAACUACAGAAAUGUAUUUGACGAGAAGGGGGUUGAUCGAAUUUUCGGCGGAUGCCUCUAAA,< 1e-05
18,AUAAAAGCGCCAGAACUACAUAAAUGUAGUUGUCGAGGAGGAGGUUUAUCGAAUUUUCGGCGGAUGCCUUCAAA,0.000159 ± 2.9e-05
19,AUAAAAGCCGCAGAACUACAGAAAUGUAGUUGACGAGGAGGAGGUUUAUCGUAUUUUCGGCGGAUGCCUCAAAA,< 1e-05
20,AUAAAAGCGCCAGAACUACAGAAAUGUAGUUGACGAGUUGGCGGUUUUUCGAAUUUUCGGCGGAUGCCUCCAAA,< 1e-05
21,AUAAAAGCGCCAGAAGUACAGAAAUGUAUUUGACGAGGAGGAGGUUUAUCGAAUUUUAGGCGGAUGCCUCCAAA,0.000585 ± 0.00014
22,AUAAAAGCGCCUGAACUACAGAAAUGUAGUUGACGAGGACUAGGUUUAUCGAAUUUUCGGCGGAUGCCUCCAAA,6.81e-05 ± 1.9e-05
23,AUAAAAGCGACGGAACUACAGAAAUGUAGUUGACGAGGAGGAGGUUUAUCGGAUUUUCGGCGGAUGCCUACAAA,6.91e-05 ± 1.7e-05
24,AUAAAAGCGCCAGAACUACAGAAAUGUAGUUGUCGAGGAGGAGGUUUAUCGAAUUUUCGGCUGAUGCCUCAAAA,< 1e-05
